Assay results: PMC7954794, “Protein context shapes the specificity of SH3 domain-mediated interactions in vivo” (Nature Communications, 2021)

System: Abp1 PPIs
Assay: DHFR-PCA of Abp1 SH3-swapped baits (Fig. 2B-D, S2C, S2F);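 for Protein-protein interaction distance between Abp1 SH3-swapped baits, to ABP1: Euclidean distance between DHFR-PCA score profiles of the baits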;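 for Protein-protein interaction distance between Abp1 SH3-swapped baits, to BEM1-2: Euclidean distance between DHFR-PCA score profiles of the baits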;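 for Protein-protein interaction distance between Abp1 SH3-swapped baits, to BOI1: Euclidean distance between DHFR-PCA score profiles of the baits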;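 for Protein-protein interaction distance between Abp1 SH3-swapped baits, to BZZ1-1: Euclidean distance between DHFR-PCA score profiles of the baits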
Assay type: cell-based, Saccharomyces cerevisiae
Procedure, shortened: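 Yeast DHFR-PCA in which Abp1 baits, carrying their SH3 replaced by CRISPR–Cas9 with one of 27 yeast SH3s or human CTTN, HCLS1 or DBNL SH3s, were mated against 575 SH3-associated DHFR F[3] preys plus 40 negative controls. Four tests were run per PPI. Diploids were selected twice (48 h, 30 °C), then grown 4 days on PCA selection media.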

[1] = number of PPIs, difference, Abp1 SH3-swapped with the listed SH3, Fig2D,S2F

B1: PEX13 (protein, UniProt P80667 1-386, looked up)
Peroxisomal membrane protein …: MSSTAVPRPKPWETSASLEEPQRNAQSLSAMMTSNQQDSRPTEESNNSNSASESAPEVLPRPAALNSSGTYGESNTIPGIYGNSNYGIPYDNNPYSMNSIYGNSIGRYGYGGSYYGNNYGSFYGGGYGAGAGYGMNNGSGLGESTKATFQLIESLIGAVTGFAQMLESTYMATHNSFFTMISVAEQFGNLKEMLGSFFGIFAIMKFLKKILYRATKGRLGIPPKNFAESEGSKNKLIEDFQKFNDSGTINSNEKATRRKISWKPLLFFLMAVFGFPYLLNKFITKLQTSGTIRASQGNGSEPIDPSKLEFARALYDFVPENPEMEVALKKGDLMAILSKKDPLGRDSDWWKVRTKNGNIGYIPYNYIEIIKRRKKIEHVDDETRTH
What does the source list for B1?
Protein-protein interaction distance between Abp1 SH3-swapped baits, to ABP1 (Abp1 bait with swapped SH3, distance to bait with ABP1 SH3, sheet Fig2C): 10.96; Protein-protein interaction distance between Abp1 SH3-swapped baits, to BBC1 (distance to Abp1 bait with BBC1 SH3, sheet Fig2C): 10.86; Protein-protein interaction distance between Abp1 SH3-swapped baits, to BEM1-1 (distance to Abp1 bait with BEM1-1 SH3, sheet Fig2C): 16.62; Protein-protein interaction distance between Abp1 SH3-swapped baits, to BEM1-2 (distance to Abp1 bait with BEM1-2 SH3, sheet Fig2C): 35.19; Protein-protein interaction distance between Abp1 SH3-swapped baits, to BOI1 (distance to Abp1 bait with BOI1 SH3, sheet Fig2C): 13.22; Protein-protein interaction distance between Abp1 SH3-swapped baits, to BOI2 (distance to Abp1 bait with BOI2 SH3, sheet Fig2C): 16.99; Protein-protein interaction distance between Abp1 SH3-swapped baits, to BUD14 (distance to Abp1 bait with BUD14 SH3, sheet Fig2C): 19.91; Protein-protein interaction distance between Abp1 SH3-swapped baits, to BZZ1-1 (distance to Abp1 bait with BZZ1-1 SH3, sheet Fig2C): 7.297; Protein-protein interaction distance between Abp1 SH3-swapped baits, to BZZ1-2 (distance to Abp1 bait with BZZ1-2 SH3, sheet Fig2C): 13.09; Protein-protein interaction distance between Abp1 SH3-swapped baits, to CDC25 (distance to Abp1 bait with CDC25 SH3, sheet Fig2C): 29.16; Protein-protein interaction distance between Abp1 SH3-swapped baits, to CTTN (distance to Abp1 bait with CTTN SH3, sheet Fig2C): 14.16; Protein-protein interaction distance between Abp1 SH3-swapped baits, to CYK3 (distance to Abp1 bait with CYK3 SH3, sheet Fig2C): 29.86; Protein-protein interaction distance between Abp1 SH3-swapped baits, to DBNL (distance to Abp1 bait with DBNL SH3, sheet Fig2C): 7.699; Protein-protein interaction distance between Abp1 SH3-swapped baits, to FUS1 (distance to Abp1 bait with FUS1 SH3, sheet Fig2C): 21.37; Protein-protein interaction distance between Abp1 SH3-swapped baits, to HCLS1 (distance to Abp1 bait with HCLS1 SH3, sheet Fig2C): 8.5; Protein-protein interaction distance between Abp1 SH3-swapped baits, to HOF1 (distance to Abp1 bait with HOF1 SH3, sheet Fig2C): 33.79; Protein-protein interaction distance between Abp1 SH3-swapped baits, to HSE1 (distance to Abp1 bait with HSE1 SH3, sheet Fig2C): 8.715; Protein-protein interaction distance between Abp1 SH3-swapped baits, to LSB1 (distance to Abp1 bait with LSB1 SH3, sheet Fig2C): 6.728; Protein-protein interaction distance between Abp1 SH3-swapped baits, to LSB3 (distance to Abp1 bait with LSB3 SH3, sheet Fig2C): 7.361; Protein-protein interaction distance between Abp1 SH3-swapped baits, to MYO3 (distance to Abp1 bait with MYO3 SH3, sheet Fig2C): 8.874; Protein-protein interaction distance between Abp1 SH3-swapped baits, to MYO5 (distance to Abp1 bait with MYO5 SH3, sheet Fig2C): 7.969; Protein-protein interaction distance between Abp1 SH3-swapped baits, to NBP2 (distance to Abp1 bait with NBP2 SH3, sheet Fig2C): 19.13; Protein-protein interaction distance between Abp1 SH3-swapped baits, to PEX13 (distance to Abp1 bait with PEX13 SH3, sheet Fig2C): 0.00; Protein-protein interaction distance between Abp1 SH3-swapped baits, to PIN3 (distance to Abp1 bait with PIN3 SH3, sheet Fig2C): 5.433; Protein-protein interaction distance between Abp1 SH3-swapped baits, to RVS167 (distance to Abp1 bait with RVS167 SH3, sheet Fig2C): 4.587; Protein-protein interaction distance between Abp1 SH3-swapped baits, to SDC25 (distance to Abp1 bait with SDC25 SH3, sheet Fig2C): 35.86; Protein-protein interaction distance between Abp1 SH3-swapped baits, to SHO1 (distance to Abp1 bait with SHO1 SH3, sheet Fig2C): 8.672; Protein-protein interaction distance between Abp1 SH3-swapped baits, to SLA1-1 (distance to Abp1 bait with SLA1-1 SH3, sheet Fig2C): 31.78; Protein-protein interaction distance between Abp1 SH3-swapped baits, to SLA1-2 (distance to Abp1 bait with SLA1-2 SH3, sheet Fig2C): 21.86; Protein-protein interaction distance between Abp1 SH3-swapped baits, to SLA1-3 (distance to Abp1 bait with SLA1-3 SH3, sheet Fig2C): 6.985; Protein-protein interaction distance between Abp1 SH3-swapped baits, to YSC84 (distance to Abp1 bait with YSC84 SH3, sheet Fig2C): 7.848; PPIs gained by Abp1 - SH3-dependent PPIs gained by Abp1 [1]: 23; SH3-dependent PPIs - SH3-dependent PPIs gained by Abp1 [1]: 0; SH3-dependent PPIs gained by Abp1 (number of PPIs, Abp1 SH3-swapped with the listed SH3, DHFR-PCA, Fig2D,S2F): 1
